Numbering of substitutions follows the chain as printed.

The target of assay [1] is T1, recombinant Fc chimeric conjugate of human HER3 (human, UniProt P21860 20-643).
T1 construct: extracellular domain; Coated on the ELISA plate
Nature of the assay: ELISA, coated antigen. Background: An ELISA detects its analyte on a solid surface through an enzyme-linked reagent.
Description: (§1) Microtiter plates were coated with a) c-Met, IGF-1R, EGFR, HER2, and/or HER3 protein or b) EGFR, HER2, and/or HER3 (recombinant Fc chimeric conjugates of human c-Met, IGF-1R, EGFR, HER2, HER3 or IL12 Rβ1). After a blocking process, specific antibodies from B-cell supernatants bind to the targets and are then detected by a POD-labeled anti-rabbit IgG antibody. The IL12R binding was used as a counter-screen.
(§2) 12.5 μL 0.5 μg/mL protein in PBS was transferred to a microtiter plate incubated and washed 3× with Wash Buffer. 90 μL Block Buffer was added to each well, incubated and washed. 12.5 μL Standard Antibody (Anti-EGF-Receptor; HER2 Rabbit anti-Human Monoclonal (extracellular domain) (SP3) Antibody; HER3 (N-terminal) antibody; start concentration 2 μg/ml; IL-12Rbeta1 antibody start concentration 500 ng/ml) in 1:2 dilutions or sample diluted in ELISA buffer was added, incubated and washed. 12.5 μl 1:5000 POD-Antibody (Anti-rabbit IgG, peroxidase-linked species-specific Fab2 fragment (from donkey) (ECL); assay dilution: 1:5000) in Elisa Buffer was added, incubated and washed. 15 μl TMB was added and 15 μl HCl was added after sufficient development. Absorbance (Optical Density O.D.) was read at 450 nm/620 nm.

The target in assay [2] is T2, recombinant Fc chimeric conjugate of human HER2 (human, UniProt P04626 23-652).
T2 construct: extracellular domain; Coated on the ELISA plate
Put plainly: ELISA, coated antigen.
Description: as §1, §2

T1 sequence (P21860 20-643, change not shown): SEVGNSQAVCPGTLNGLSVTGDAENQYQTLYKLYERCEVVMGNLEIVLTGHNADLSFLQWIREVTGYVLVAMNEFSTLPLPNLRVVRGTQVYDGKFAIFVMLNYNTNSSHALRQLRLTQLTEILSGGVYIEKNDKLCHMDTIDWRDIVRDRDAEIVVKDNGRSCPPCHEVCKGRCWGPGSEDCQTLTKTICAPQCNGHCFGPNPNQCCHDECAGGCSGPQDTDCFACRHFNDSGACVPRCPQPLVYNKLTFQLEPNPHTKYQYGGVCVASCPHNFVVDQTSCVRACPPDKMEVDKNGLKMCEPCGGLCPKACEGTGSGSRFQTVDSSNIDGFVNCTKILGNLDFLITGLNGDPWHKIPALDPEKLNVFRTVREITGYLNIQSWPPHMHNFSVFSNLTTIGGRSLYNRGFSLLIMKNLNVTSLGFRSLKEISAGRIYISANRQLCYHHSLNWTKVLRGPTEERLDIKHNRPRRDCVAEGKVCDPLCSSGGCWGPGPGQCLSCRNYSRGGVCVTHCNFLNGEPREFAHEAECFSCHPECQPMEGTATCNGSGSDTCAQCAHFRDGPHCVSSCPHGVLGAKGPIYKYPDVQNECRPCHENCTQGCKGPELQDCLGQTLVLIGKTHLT

B1: Antibody 45 (antibody, V domains shown)
VH: QSVEESGGRLVTPGTPLTLTCTVSGFSLSSYAMTWVRQAPGKGLEWIGIIDHSRATYYANWAKGRFTISKTSSTTVDLKVTSLTTEDTATYFCARFFNPGGSGYLRLWGQGTLVTVSS
VL: DVVMTQTPASVSEPVGGTVTIKCQASQIISNWLAWYQQKPGQPPKLLIYGASILASGVPSRFKASRSGTDYTLTIGDLECADAATYYCQCPDYSDTSLGSFGGGTEVVVR
notes: rabbit IgG in B-cell supernatant
In the case of B1, the binding result in assay [1] is listed as “no binding (tested: OD 0.1 or lower)”.

B2: Antibody 20 (antibody, V domains shown)
VH: QSLEESGGGLVQPEGSLTLTCTASGLDASSNCWVCWVRQAPGKGLEWIACIYAIGSGVTYYASWVNGRFSISKTSSTTVTLQMTSLTVADTATYLCARVLNGVGYIDLWGPGTLVTVSS
VL: DIVMTQTPSSVEAAVGGTVTIKCQASQSVYNNNWLAWYQQIPGQPPKLLIYESSTLASGVPSRFKGSGSGTQFTLTISDVQCDDAAMYYCQTYYYSSSRTYAFGGGTEVVVK
notes: as for B1
Consider B2, for which the binding result in assay [1] is “no binding (tested: OD 0.1 or lower)”.

B3: Antibody 15 (antibody, V domains shown)
VH: QSVEESGGRLVTPGTPLTLTCTVSGFSLNSHAMSWVRQAPGKGLEWIGIISSSGSAWYATWVKGRFTISKTSTTVDLKMTSLTTEDTATYFCARDSAMVPSNFNLWGQGTLVTVSS
VL: AIEMTQSPPSLSASVGETVRIRCLASEFLFNAVSWYQQKPGKPPTLLISGASNLESGVPPRFSGSGSGTDYTLTIGGVQAEDVATYYCLGDFSGGADLTFGAGTKVEIK
notes: as for B1
Take B3: the binding result in assay [1] is “no binding (tested: OD 0.1 or lower)”.

B4: Antibody 74 (antibody, V domains shown)
VH: QSVEESGGRLVTPGTPLTLTCTVSGFSLSSGYMNWVRQAPGKGLEWIGRIHTLSGSIWYASWVKGRFTISKTSTTVDLKMTSLTTKDTATYFCARGNAGGSIEYGMDLWGPGTLVTVSA
VL: AYDMTQTPASVEAAVGGTVTIKCQASESITNYLNWYQQKPGQPPKLLIYSASTLASGVPSRFKGSGSGTQFTLTISGVECADAGTYYCQQGYSLINVGDIFGGGTEVVVR
notes: as for B1
B4: the binding result in assay [1] was “no binding (tested: OD 0.1 or lower)”.

B5: Antibody 34 (antibody, V domains shown)
VH: QEQLVESGGGLVQPEGSLTLTCKASGFSFSSGYYMCWVRQAPGKGLEWIACIYADSSESTYYASWAKGRFTISKTSSTTVTLQVTSLTAADTATYFCARWGTVAGYSTFNLWGPGTLVTVSS
VL: DVVMTQTPASVSEPVGGTVTIKCQASQSISTALAWYQQKPGQPPKLLIYFTSTLASGVSSRFKGSGSGAEFTLTISDLECADAATYYCQGYYYVTNFPFGGGTEVVVK
notes: as for B1
B5: the binding result in assay [1] is “no binding (tested: OD 0.1 or lower)”.

B6: Antibody 9 (antibody, V domains shown)
VH: QEQLEESGEGLVKPGTPLTLTCTASGFSLSSGDMSWVRQAPGKGLEWIGTIGVDGSTDYANWAEGRFTISRTSTTVDLKMTSPTTEDTATYFCARGLFDDYTFNLWGQGTLVTVSS
VL: AYDMTQTPASVEVAVGGTVTIKCQASQNIYTYLSWYQQKPGQPPKLLIYKTSTLASGVPSRFSGSGSGTEYTLTVSGVQCDDAATYYCQQGYTTSSNVATPFGGGTEVVVK
notes: as for B1
In the case of B6, in assay [1], the binding result is “no binding (tested: OD 0.1 or lower)”.

B7: Antibody 21 (antibody, V domains shown)
VH: QEHLEESGGGLVKPPGSLTLTCTASGFSFSSTYYICWVRQAPGKGLEWIGCIYAGSGTTYYASWAKGRFTISKTSSTTVTLQMASLTAADTATYFCARSSDSWTYGMDLWGPGTLVTVSS
VL: DIVMTQTPASVSEPVGGTVTIKCQASQSISSYLAWYQQKPGQPPKRLIYKASTLASGVPSRFKGSGSGTDFTLTISDLECADAATYYCQCTYGNTGSNFFYGFGGGTEVVVK
notes: as for B1
B7: the binding result in assay [1] was “no binding (tested: OD 0.1 or lower)”.

B8: Antibody 18 (antibody, V domains shown)
VH: QSVEESGGRLVTPGTPLTLTCTVSGFSLSTYWMSWVRQAPGKGLEYIGFINTGGNAYYASWAKGRFTISKTSTSVDLKITSPTTEDTATYFCAGAYVGDVGDGYALTLWGQGTLVTVSS
VL: DVVMTQTPASVSEPVGGTVTIKCQASQSIGNKLAWYQQVPGQPPKLLIYSASPLASGVSSRFKGSRSGTEYTLTISDLECADAATYYCQCTYYGSSGNAFGGGTEVVVK
notes: as for B1
As to B8, in assay [1], the binding result is “no binding (tested: OD 0.1 or lower)”.

B9: Antibody 52 (antibody, V domains shown)
VH: QSVEESGGRLVTPGTALTLTCTVSGFSLSSGDMSWVRQAPGKGLEWIGYIWSGVSTYYANWAKGRFTISKTSSTTVDLKMTSLTIEDTATYFCARVDFYSYVYSLWGPGTLVTVSS
VL: ALVMTQTPASVEAAVGGTVTIKCQASQSISSCLAWYQQKPGQPPKLLIYSASTLASGVPSRFKGSGSGTEYTLTISGVECADAATYYCQQHYTSNNIDNAFGGGTEVVVK
notes: as for B1
In the case of B9, the binding result in assay [2] is given as “no binding (tested: OD 0.1 or lower)”.

B10: Antibody 56 (antibody, V domains shown)
VH: QSLEESGGRLVTPGTPLTLTCTASGFSLSSYDLSWVRQAPGKGLEWIAYIWSGDKTYYANWAKGRFTISKTSSTTVDLKMTSLTTEDTATYFCATVNIYSYVYSLWGPGTLVTVSS
VL: B9 VL with L2Y, V3D, A13V, S31T, C32A, P40S, S50L, T93S, I97V
notes: as for B1
Consider B10, for which the binding result in assay [2] is recorded as “no binding (tested: OD 0.1 or lower)”.

B11: Antibody 55 (antibody, V domains shown)
VH: QSLEESGGRLVTPGGSLTLTCTVSGSDISSYDMSWVRQAPGKGLEWIGYIWSGTTIYYASWPKGRFTISKTSSTTVDLKMTSLTTEDTATYFCAAINIYTYVYSLWGPGTLVTVSS
VL: AYDMTQTPASVEAAVGGTVTIKCQASESIYSSLAWYQQKSGQPPKLLIYLASTLASGVPSRFKGSGSGTDYTLTISGVECADAATYYCQQHYSGSNVDNAFGGGTEVVVK
notes: as for B1
Turning to B11, the binding result in assay [2] is listed as “no binding (tested: OD 0.1 or lower)”.

B12: Antibody 53 (antibody, V domains shown)
VH: B11 VH with S30T, M33A, T55K, I56T, P62A, A95T, I96V, I98T
VL: B11 VL with A13V, E27Q, Y30S, D70E, S93T, G94A, S95L
notes: as for B1
Regarding B12, the binding result in assay [2] was “no binding (tested: OD 0.1 or lower)”.

B13: Antibody 24 (antibody, V domains shown)
VH: QSVEESGGRLVTPGTPLTLTCTVSGFSLSSNAISWVRQAPGKGLEWIGFINIYGSTYYASWAKGRFTISRTSTTVDLKMTSLTTEDTATYFCARDRTGDSPTRLDLWGQGTLVTVSS
VL: DVVMTQTPASVEAAVGGTVTIKCQASQSISSYLSWYQQKPGQPPKLLIYDASTLASGVPSRFKGSGSGTQFTLTISDLECADAATYYCQCTYGYGASSAYGNAFGGGTEMVVK
notes: as for B1
As for B13, in assay [2], the binding result was “no binding (tested: OD 0.1 or lower)”.

B14: Antibody 79 (antibody, V domains shown)
VH: QSVEESGGRLVTPGTPLTLTCTVSGFSLSSNAMSWVRQAPGKGLEWIGIINIYGSTNYASWAKGRFTISKTSSTTVDLKITSPTTEDTATYFCARDYGGVSATRLDLWGQGTLVTVSS
VL: B13 VL with S30G, T53N, A55E, S56D, Q70E, F71Y, A84V, A96I, A99S, M110V
notes: as for B1
B14: in assay [1], the binding result is “no binding (tested: OD 0.1 or lower)”.

B15: Antibody 1 (antibody, V domains shown)
VH: QSLEESGGRLVTPGTPLTLTCTASGFSLSSYAMIWVRQAPGEGLEYIGIIITGGSAYYANWAKGRFTISRTSTTVDLKMTSLTTEDTATYFCARGYSGSSGDLWGQGTLVTVSS
VL: DVVMTQTPASVSEPVGGTVTIKCQASQSISSWLSWYQQKPGQPPKLLIYGASNLASGVSSRFKGSRSGTEYTLTISDLECADAATYYCQCTDYTSKYVGAFGGGTEVLVR
notes: as for B1
As for B15, the binding result in assay [1] is listed as “no binding (tested: OD 0.1 or lower)”.

B16: Antibody 72 (antibody, V domains shown)
VH: QSLEESGGRLVTPGTLLTLTCTASGIDLSGHAMAWVRQAPGKGLEWIGIIYDNGITNYPTWAKGRFTISKTSTTVELKFTSPTTEDTATYFCARDTGNGALRLTLWGPGTLVTVSS
VL: DIVMTQTPSPVSAAVGGTVTIKCQASQSIGSWLSWYQQKPGQRPKLLIYGASTLESGVPSRFKGSGSGTEFTLTISDLECADAATYYCHCTYGSVSGNAFGGGTEVVVK
notes: as for B1
As for B16, the binding result in assay [1] is “no binding (tested: OD 0.1 or lower)”.

B17: Antibody 78 (antibody, V domains shown)
VH: QSVEESGGRLVTPGTPLTLTCTVSGIDLSSYWMIWVRQAPGEGLEYIGFISNGGGAYYANWTKGRFTISRTSTTVDLKMTSLTTEDTATYFCARAYTTVTIGGFDLWGPGTLVTVSS
VL: AYDMTQTPASVEVAVGGTVTINCQASQNIYNGLAWYQQKPGQPPKLLIYLASTLASGVPSRFKGSGSGTEFTLTISDLECADAATYYCQQGFSVNNVGNVFGGGTEMVVK
notes: as for B1
Regarding B17, the binding result in assay [1] was “no binding (tested: OD 0.1 or lower)”.

B18: Antibody 88 (antibody, V domains shown)
VH: QSVEESGGRLVTPGTPLTLTCTVSGFPLSSYVMSWVRQAPGTGLEYIGIVGIGGSAYYASWAKGRFTISRTSTTVDLKMTSLTPEDTATYFCARGAGGNFYSPLDLWGQGTLVTVSS
VL: DIVMTQTASPLSGAVGGTVTIKCQASQSISNELAWYQQKPGQRPKLLIYLASTLASGVPSRFKGSGSGTDFTLTISDLECADAATYYCQSYSDTSSISYGYGFGGGTEVVVK
notes: as for B1
Regarding B18, the binding result in assay [1] is on record as “no binding (tested: OD 0.1 or lower)”.

B19: Antibody 32 (antibody, V domains shown)
VH: QSVEESGGRLVTPGTPLTLTCTVSGFSLSSYDMSWVRQAPGKGLEWIGFIDGDSNTYDATWAKGRFTISKTSTTVDLKITSPTTEDTATYFCTRGFNLWGQGTLVTVSS
VL: DVVMTQTPASVSEPVGGTVTIKCQASQSISSYLAWYQQKPGQPPKLLIYKASTLASGVSSRFKGSGSGTEFTLTISDLECADAATYYCQCSAGGRSGIGGFGGGTEVVVK
notes: as for B1
On to B19, for which the binding result in assay [2] is given as “no binding (tested: OD 0.1 or lower)”.

B20: Antibody 28 (antibody, V domains shown)
VH: QEQLEESGGDLVKPGASLTLTCKVSGFSLTSGYYMCWVRQAPGKGLEWLACIYTGSSGRTYYASWAKGRFTISKTSSTTVTLQMTSLTAADTATFFCARELYLSSVLWGPGTLVTVSS
VL: DVVMTQTPASVSEPVGGTVTIKCQASQSISSSYLSWYQQKPGQPPKLLIYRASTLESGVPSRFKGSGSGTEFTLTISDLECADAATYYCQCTDYAGSYVGGAFGGGTEVVVK
notes: as for B1
In the case of B20, the binding result in assay [2] is given as “no binding (tested: OD 0.1 or lower)”.

B21: Antibody 6 (antibody, V domains shown)
VH: QSVEESGGRLVTPGTPLTLTCTVSGFSLSSYTMGWVRQAPGKGLEYIGIINTGGYTYYASWAKGRFTISRTSTTVDLSMTSLTTEDTATYFCARVYPGSSCDLWGQGTLVTVSS
VL: B20 VL
notes: as for B1
For B21, the binding result in assay [1] is reported as “no binding (tested: OD 0.1 or lower)”.
